Like-named read-outs stand apart in the source and are kept apart here.
Tests used:
Assay in all cases: UV peptide exchange + HLA class I ELISA
HLA-B*08:01 (human) = details: remark: other sources report otherwise
HLA-A*24:02 (human) = target: HLA-A*24:02 (human)
HLA-B*07:02 (human) = target: HLA-B*07:02 (human)
HLA-A*02:01 (human) = target: HLA-A*02:01 (human)
HLA-A*11:01 (human) = target: HLA-A*11:01 (human)
HLA-A*01:01 (human) = details: remark: other sources report otherwise
HLA-A*03:01 (human) = target: HLA-A*03:01 (human)
[1] = remark: other sources report otherwise

HLSLRGLPV (modifications not checked) [x52-60]
Bindings% (of positive control) (HLA-B*08:01 (human)): 79.8%

GYPALMPLY (modifications not checked) [p650-658]
Bindings% (of positive control) (HLA-A*24:02 (human)): 42.7%

LPIHTAELL (modifications not checked) [p723-731]
Bindings% (of positive control) (HLA-B*07:02 (human); [1]): 32.3%

SFCGSPYSW (modifications not checked) [p167-175]
Bindings% (of positive control) (HLA-A*24:02 (human)): 84%

FAVPNLQSL (modifications not checked) [p407-415]
Bindings% (of positive control) (HLA-A*02:01 (human)): 33.3%

STTDLEAYFK (modifications not checked) [x104-113]
Bindings% (of positive control) (HLA-A*11:01 (human); [1]): 98.7%

CGYPALMPLY (modifications not checked) [p649-658]
Bindings% (of positive control) (HLA-A*24:02 (human)): 38.1%

GPCALRFTS (modifications not checked) [x67-75]
Bindings% (of positive control) (HLA-B*07:02 (human)): 26.9%

WPKFAVPNL (modifications not checked) [p404-412]
Bindings% (of positive control) (HLA-B*07:02 (human); [1]): 70.5%

LPVCAFSSA (modifications not checked) [x58-66]
Bindings% (of positive control) (HLA-B*07:02 (human); [1]): 52.8%

VFADATPTGW (modifications not checked) [p697-706]
Bindings% (of positive control) (HLA-A*24:02 (human)): 40.4%

VLHKRTLGL (modifications not checked) [x92-100]
Bindings% (of positive control) (HLA-B*08:01 (human)): 60.8%

TTDLEAYFK (modifications not checked) [x105-113]
Bindings% (of positive control) (HLA-A*01:01 (human)): 41.7%

RVHFASPLH (modifications not checked) [p829-837]
Bindings% (of positive control) (HLA-A*11:01 (human)): 39.5%
Bindings% (of positive control) (HLA-A*03:01 (human)): 68.8%

PLDKGIKPYY (modifications not checked) [p124-133]
Bindings% (of positive control) (HLA-A*01:01 (human)): 26.7%

VLCLRPVGA (modifications not checked) [x15-23]
Bindings% (of positive control) (HLA-A*02:01 (human); [1]): 31.7%

MSTTDLEAY (modifications not checked) [x103-111]
Bindings% (of positive control) (HLA-A*01:01 (human)): 30.2%

From US20230242590A1
